# T1: Recombinant Activin A (human, UniProt P08476 311-426)
# T1 construct: Activin A (inhibin beta A chain), recombinant; source: bought: R&D Biosystems or Life Technologies; also produced in-house
# T1 sequence (looked up): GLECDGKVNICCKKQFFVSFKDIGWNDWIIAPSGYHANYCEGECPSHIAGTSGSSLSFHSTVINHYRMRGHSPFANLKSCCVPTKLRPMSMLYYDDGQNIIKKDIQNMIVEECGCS
# T2: BMPRII-Fc (human, UniProt Q13873 27-150)
# T2 construct: type II receptor BMPRII, human, extracellular domain-Fc fusion; Bought protein; source: bought: R&D Biosystems or Life Technologies
# T2 sequence (looked up): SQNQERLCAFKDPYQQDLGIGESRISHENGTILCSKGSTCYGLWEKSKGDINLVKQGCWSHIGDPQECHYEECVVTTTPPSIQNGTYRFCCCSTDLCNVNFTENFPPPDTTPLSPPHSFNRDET
# T3: Human Cerberus-hIgg-Fc (human, UniProt O95813 18-267)
# T3 construct: signal peptide in the construct; also called Cerberus-Fc; full-length Cerberus-Fc; source: CHO cells, purified from conditioned medium (Protein A, SEC); not shown: Fc (human IgG1), C-terminal, kept
# T3 sequence (looked up): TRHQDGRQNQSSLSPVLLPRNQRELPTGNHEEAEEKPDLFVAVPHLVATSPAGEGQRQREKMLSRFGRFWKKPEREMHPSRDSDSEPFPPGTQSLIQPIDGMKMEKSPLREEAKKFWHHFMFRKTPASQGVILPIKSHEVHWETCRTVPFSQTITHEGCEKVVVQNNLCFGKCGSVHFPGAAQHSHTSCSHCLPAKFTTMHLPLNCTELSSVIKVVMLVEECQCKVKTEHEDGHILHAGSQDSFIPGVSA
# T4: Cripto-1-Fc (human, UniProt P13385 31-151)
# T4 construct: signal peptide in the construct; Cripto1 (1-151), amplicon from cDNA (Thermo Scientific) fused to the hIgg1-Fc domain by PCR; source: CHO cells, purified from conditioned medium (Protein A, SEC)
# T4 sequence (looked up): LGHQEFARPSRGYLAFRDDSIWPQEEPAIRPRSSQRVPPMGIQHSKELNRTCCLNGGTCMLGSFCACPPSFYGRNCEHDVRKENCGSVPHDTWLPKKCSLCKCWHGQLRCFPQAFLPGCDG
# T5: Human Cerberus-hIgg-Fc (human), O95813
# T5 chain: T3 sequence (looked up)
# B1: human ACTRIIB-hIgg-Fc (Fc fusion, UniProt Q13705 19-120, looked up)
# chain: SGRGEAETRECIYYNANWELERTNQSGLERCEGEQDKRLHCYASWRNSSGTIELVKKGCWLDDFNCYDRQECVATEENPQVYFCCCEGNFCNERFTHLPEAG
# notes: signal peptide in the construct; extracellular domain of human ActRIIB (1-120), joined to human IgG1 Fc by a 22 amino acid linker with a TEV site, a glycine/serine rich region and a FLAG-tag; Synthetic gene from GeneArt; also called ACTRIIB-Fc; source: CHO cells, purified from conditioned medium (Protein A, SEC)
# B2: recombinant human Nodal (ligand, UniProt Q96S42 238-347, looked up)
# chain: HHLPDRSQLCRKVKFQVDFNLIGWGSWIIYPKQYNAYRCEGECPNPVGEEFHPTNHAYIQSLLKRYQPHRVPSTCCAPVKTKPLSMLYVDNGRVLLDHHKDMIVEECGCL
# notes: Nodal, human, recombinant (RnD Systems); source: bought: RnD Systems
# B3: Recombinant GDF-11 (ligand, human, UniProt O95390 299-407, looked up)
# chain: NLGLDCDEHSSESRCCRYPLTVDFEAFGWDWIIAPKRYKANYCSGQCEYMFMQKYPHTHLVQQANPRGSAGPCCTPTKMSPINMLYFNDKQQIIYGKIPGMVVDRCGCS
# notes: GDF-11, recombinant; source: bought: R&D Biosystems or Life Technologies
# B4: Recombinant BMP-2, P12643 283-396 (ligand)
# chain: QAKHKQRKRLKSSCKRHPLYVDFSDVGWNDWIVAPPGYHAFYCHGECPFPLADHLNSTNHAIVQTLVNSVNSKIPKACCVPTELSAISMLYLDENEKVVLKNYQDMVVEGCGCR
# B5: human ALK4-hIgg-Fc (Fc fusion, UniProt P36896 24-110, looked up)
# chain: SGPRGVQALLCACTSCLQANYTCETDGACMVSIFNLDGMEHHVRTCIPKVELVPAGKPFYCLSSEDLRNTHCCYTDYCNRIDLRVPS
# notes: signal peptide in the construct; extracellular domain of human ALK4 (1-110), joined to human IgG1 Fc by a 22 amino acid linker with a TEV site, a glycine/serine rich region and a FLAG-tag; Synthetic gene from GeneArt; also called ALK4-Fc; source: CHO cells, purified
# Legend:
# Assay in all cases: SPR; Biacore 2000; 200-300 RU of Fc fusion captured by anti-human IgG (Fc) antibody on a CM5 chip; concentration series of ligand injected at 50 ul/min; 25 C; HBS-EPS (0.01 M HEPES, 0.5 M NaCl, 3 mM EDTA, 0.005% Tween 20, pH 7.4); 1:1 Langmuir model with mass transport; Kd = kd/ka
# [1] = molecular target: T1, Recombinant Activin A; conditions: both partners purified
# [2] = molecular target: B2; conditions: both partners purified
# [3] = molecular target: T6, human Cryptic-hIgg-Fc (human, UniProt P0CG37 26-158); conditions: both partners purified
# T6 construct: signal peptide in the construct; human Cryptic (1-158), joined to human IgG1 Fc by a 22 amino acid linker with a TEV site, a glycine/serine rich region and a FLAG-tag; Synthetic gene from GeneArt; also called Cryptic-Fc; source: CHO cells, purified from conditioned medium (Protein A, SEC)
# [4] = molecular target: T2, BMPRII-Fc; conditions: both partners purified
# [5] = molecular target: T3, Human Cerberus-hIgg-Fc; conditions: both partners purified
# [6] = molecular target: T4, Cripto-1-Fc; conditions: both partners purified
# [7] = molecular target: T3, Human Cerberus-hIgg-Fc; conditions: both partners purified; remark: listed apart in the source
# [8] = molecular target: T5, Human Cerberus-hIgg-Fc (human), O95813; conditions: remark: other sources report otherwise
# T6 sequence (P0CG37 26-158): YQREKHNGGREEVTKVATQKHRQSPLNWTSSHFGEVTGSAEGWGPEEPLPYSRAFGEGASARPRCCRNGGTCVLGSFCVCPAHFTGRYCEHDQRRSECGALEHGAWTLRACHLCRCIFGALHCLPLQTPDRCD
Kd [1] [nM],koff [1] [s⁻¹],kon [1] [M⁻¹ s⁻¹],Kd [2] [nM],koff [2] [s⁻¹],kon [2] [M⁻¹ s⁻¹],Kd [5] [nM],koff [5] [s⁻¹],kon [5] [M⁻¹ s⁻¹],Binder,further results
0.018,2.7e-05,1.5e+06,~10,~0.00049,~49000,,,,B1,
,,,,,,1.1,1.4e-05,13000,B2,Kd [3]: 2000 nM; koff [3]: 0.001 s⁻¹; kon [3]: 550 M⁻¹ s⁻¹; Kd [4]: 0.149 nM; koff [4]: 4.6e-05 s⁻¹; kon [4]: 310000 M⁻¹ s⁻¹; Kd [6]: 16 nM; koff [6]: 0.00026 s⁻¹; kon [6]: 10000 M⁻¹ s⁻¹; Kd [7]: 1 nM
,,,,,,5800,0.014,1200,B3,
,,,,,,,,,B4,Kd [8]: 3000 nM; koff [8]: 0.072 s⁻¹; kon [8]: 24000 M⁻¹ s⁻¹
2.4,0.00048,200000,~15,~0.00032,~46000,,,,B5,
